Experimental data from PMC3145919 (Neuron, 2011).
Positions count from the first letter of the chain named. Names may count otherwise. Like-named read-outs stand apart in the source and are kept apart here. Blank lines part the entries; values can stand above or below the molecule they belong to.

What was measured:
[1] = molecular target: GluR6Δ2 F58A mutant ATD (rat) (UniProt P42260); test: AUC
[2] = molecular target: GluR6Δ2 ATD (G215N/M217T glycan wedge mutant) (rat) (UniProt P42260); test: AUC
[3] = molecular target: KA2 amino terminal domain (ATD), wild type (rat) (UniProt Q63273); test: AUC
[4] = molecular target: KA2 amino terminal domain (ATD), wild type (rat) (UniProt Q63273); test: AUC; remark: listed apart in the source
SEC-MALS = molecular target: the molecule itself; test: SEC-MALS
AUC [5] = molecular target: the molecule itself; test: AUC
AUC [6] = molecular target: the molecule itself; test: AUC; remark: listed apart in the source
AUC [7] = molecular target: the molecule itself; test: AUC; remark: listed apart in the source

- Kd [1]: 1.63 µM
- Kd [2]: 0.14 µM
Molecule: KA2 Y57A mutant ATD (domain or fragment)

- Kd [1]: 2 µM
Molecule: KA2 Y57A/E156A mutant ATD (domain or fragment)

- Kd [1]: 6.7 µM
Molecule: KA2 Y57A/L163A mutant ATD (domain or fragment)

- Kd [1]: 13 µM
Molecule: KA2 Y57A/S165G/T168A mutant ATD (domain or fragment)

- Kd [3]: 350 µM
- Kd [4]: 410 µM
Molecule: KA2 amino terminal domain (ATD), wild type (from UniProt Q63273 20-406) (domain or fragment)

B1: GluR6 amino terminal domain (ATD), wild type (domain or fragment, rat)
chain: TTHVLRFGGIFEYVESGPMGAEELAFRFAVNTINRNRTLLPNTTLTYDTQKINLYDSFEASKKACDQLSLGVAAIFGPSHSSSANAVQSICNALGVPHIQTRWKHQVSDNKDSFYVSLYPDFSSLSRAILDLVQFFKWKTVTVVYDDSTGLIRLQELIKAPSRYNLRLKIRQLPADTKDAKPLLKEMKRGKEFHVIFDCSHEMAAGILKQALAMGMMTEYYHYIFTTLDLFALDVEPYRYSGVNMTGFRILNTENTQVSSIIEKWSMERLQAPPKPDSGLLDGFMTTDAALMYDAVHVVSVAVQQFPQMTVSSLQCNRHKPWRFGTRFMSLIKEAHWEGLTGRITFNKTNGLRTDFDLDVISLKEEGLEKIGTWDPASGLNMTESQKGK
modifications: N-linked glycans
- binding result (SEC-MALS): binds

B2: wt GluR6/KA2 ATD heterodimer (complex, rat)
chain 1: B1 chain
chain 2: VLSSLRMAAILDDQTVCGRGERLALALAREQINGIIEVPAKARVEVDIFELQRDSQYETTDTMCQILPKGVVSVLGPSSSPASASTVSHICGEKEIPHIKVGPEETPRLQYLRFASVSLYPSNEDVSLAVSRILKSFNYPSASLICAKAECLLRLEELVRGFLISKETLSVRMLDDSRDPTPLLKEIRDDKVSTIIIDANASISHLVLRKASELGMTSAFYKYILTTMDFPILHLDGIVEDSSNILGFSMFNTSHPFYPEFVRSLNMSWRENCEASTYPGPALSAALMFDAVHVVVSAVRELNRSQEIGVKPLACTSANIWPHGTSLMNYLRMVEYDGLTGRVEFNSKGQRTNYTLRILEKSRQGHREIGVWYSNRTLAMNATTLDI
modifications: N-linked glycans | N-linked glycans
- Kd (AUC [5]): 6.2 µM

B3: GluR6Δ2 ATD (G215N/M217T glycan wedge mutant) (domain or fragment, rat)
chain: B1 chain with G215N, M217T
modifications: N-linked glycans, one introduced by the mutations (glycan wedge)
- Kd (AUC [6]): 0.25 µM
- stoichiometry N (SEC-MALS): 2
- Kd (AUC [7]): 0.35 µM

B4: GluR6Δ1 ATD (A213N/G215S glycan wedge mutant) (domain or fragment, rat)
chain: B1 chain with A213N, G215S
modifications: N-linked glycans, one introduced by the mutations (glycan wedge)
- stoichiometry N (SEC-MALS): 2
